Reference: patent US20260200999A1, “SYNTHETIC TRANSCRIPTION FACTORS” (ETH ZURICH, priority 2022, published 2026)

B1: SEQ ID NO: 51: negative control promoter comprising 5 scrambled DNA binding sites spaced by 10 bp (nucleic acid)
DNA: ATTCTACCGTCTCGGGCCATTAAAGGCATATGATTCTACCGTCTCGGGCCATTAAAGGCATATGATTCTACCGTCTCGGGCCATTAAAGGCATATGATTCTACCGTCTCGGGCCATTAAAGGCATATGATTCTACCGTCTCGGGCCATTA
B2: codon optimized MTF construct: DNA construct encoding MTF with codons changed to the most common ones in humans (nucleic acid)
DNA: ATGTTCGGCGTGAAGTGCCACAACACCGACAGCGAGCCCCTGAAGAACGAGGACCTGCTGAAGAACCTGCTGACCATGGGCGTGGACATCGACATGGCCCGCAAGCGCCAGCCCGGCGTGTTCCACCGCATGATCACCAACGAGCAGGACCTGAAGATGTTCCTGCTGAGCAAGGGCGCCAGCAAGGAGGTGATCGCCAGCATCATCAGCCGCTACCCCCGCGCCATCACCCGCACCCCCGAGAACCTGAGCAAGCGCTGGGACCTGTGGCGCAAGATCGTGACCAGCGACCTGGAGATCGTGAACATCCTGGAGCGCAGCCCCGAGAGCTTCTTCCGCAGCAACAACAACCTGAACCTGGAGAACAACATCAAGTTCCTGTATAGCGTGGGCCTGACCCGCAAGTGCCTGTGCCGCCTGCTGACCAACGCCCCCCGCACCTTCAGCAACAGCCTGGACCTGAACAAGCAGATGGTGGAGTTCCTGCAGGCCGCCGGCCTGAGCCTGGGCCACAACGACCCCGCCGACTTCGTGCGCAAGATCATCTTCAAGAACCCCTTCATCCTGATCCAGAGCACCAAGCGCGTGAAGGCCAACATCGAGTTCCTGCGCAGCACCTTCAACCTGAACAGCGAGGAGCTGCTGGTGCTGATCTGCGGCCCCGGCGCCGAGATCCTGGACCTGAGCAACGACTACGCCCGCCGCAGCTACGCCAACATCAAGGAGAAGCTGTTCAGCCTGGGCTGCACCGAGGAGGAGGTGCAGAAGTTCGTGCTGAGCTACCCCGACGTGATCTTCCTGGCCGAGAAGAAGTTCAACGACAAGATCGACTGCCTGATGGAGGAGAACATCAGCATCAGCCAGATCATCGAGAACCCCCGCGTGCTGGACAGCAGCATCAGCACCCTGAAGAGCCGCATCAAGGAGCTGGTGAACGCCGGCTGCAACCTGAGCACCCTGAACATCACCCTGCTGAGCTGGAGCAAGAAGCGCTACGAGGCCAAGCTGAAGAAGCTGAGCCGCTTCGCCCAGGCCGGCGAGGGCACCCTGAGCGAGGCCCTGCTGCAGCTGCAGTTCGACGACGAGGACCTGGGCGCCCTGCTGGGCAACAGCACCGACCCCGCCGTGTTCACCGACCTGGCCAGCGTGGACAACAGCGAGTTCCAGCAGCTGCTGAACCAGGGCATCCCCGTGGCCCCCCACACCACCGAGCCCATGCTGATGGAGTACCCCGAGGCCATCACCCGCCTGGTGACCGGAGCACAAAGACCCCCTGATCCTGCGCCAGCACCTCTTGGAGCACCTGGCCTGCCCAACGGCCTGCTGAGCGGCGACGAGGACTTCAGCAGCATCGCCGACATGGACTTCAGCGCCCTGCTGAGCCAGATCAGCAGC

How the values were obtained:
Format in all cases: cell-based, human
[1] = tested on: reporter construct with MTERF1 binding sites (SEQ ID NO: 42) upstream a minimal TATA box driving mCerulean; assay: mCerulean reporter co-transfection with MTF construct in Hela cells (microscopy, flow cytometry)
Text: The inventors engineered an exemplary “Human-derived transcriptional activator protein” (HumTAP) transactivation system by engineering a HumTAP transactivator and a promoter comprising the Response Elements/MTERF1 binding sites that is operably linked to a gene of interest. A prototype HumTAP protein was made by fusing a peptide consisting of amino acids 58 through 399 of the human MTERF1 gene (MTERF158-399 (SEQ ID NO: 1), Uniprot Q99551) to a peptide consisting of amino acids 430 through 551 of the RELA protein (RelA430-551 (SEQ ID NO: 3), Uniprot Q04206). This fusion is henceforth referred to as MTERF158-399::RelA430-551 (or “MTF”; SEQ ID NO: 100). A DNA construct was made with a strong EF1A promoter driving a constitutive expression of MTF (SEQ ID NO: 101) in human cells (“MTF construct”).
To construct a promoter with Response Elements/MTERF1 binding sites driving the gene of interest, the inventors placed MTERF1 binding sites (SEQ ID NO: 42) upstream a minimal TATA box (SEQ ID NO: 103). An mCerulean fluorescent reporter representing the gene of interest (Gol) was placed downstream of the TATA box. Each of these is referred to as a reporter construct. […] Using flow cytometry, relative mCerulean levels were measured and calculated by normalization to the transfection control in Hela cells (FIG. 1C). […]

[2] = tested on: Response Element-driven mCerulean reporter (MTERF1 binding sites, SEQ ID NO: 42); assay: mCerulean reporter co-transfection with HumTAP constructs in HEK293 cells (flow cytometry)
Text: To construct a promoter with Response Elements/MTERF1 binding sites driving the gene of interest, the inventors placed MTERF1 binding sites (SEQ ID NO: 42) upstream a minimal TATA box (SEQ ID NO: 103). An mCerulean fluorescent reporter representing the gene of interest (Gol) was placed downstream of the TATA box. Each of these is referred to as a reporter construct. Five different reporter constructs were made comprising respectively 3, 5, 7, 9, and 11 MTERF1 binding sites 6 base pairs apart upstream of the TATA box (FIG. 1A; SEQ ID NO: 41, 44, 45, 46 and 47, respectively). They were co-transfected with the MTF construct into Hela cells. […] Using flow cytometry, relative mCerulean levels were measured and calculated by normalization to the transfection control in Hela cells (FIG. 1C). […] Next, reporter plasmids with varying spacer lengths (0, 6 bp and 10 bp; SEQ ID NO: 48, 44 and 49, respectively) (FIG. 1F) between a fixed number of REs (i.e. 5 REs/MTERF1 binding sites) were transfected with the MTF construct. […] This was confirmed using flow cytometry (FIG. 1H). […]
With the goal to engineer stronger and possibly shorter HumTAPs, the inventors fused the MTERF158-399 peptide (SEQ ID NO: 1) to a variety of transactivation domains and transfected HEK293 cells with those constructs and the reporter construct comprising 5×RE/MTERF1 binding sites without a spacer between them (SEQ ID NO: 48).
First, MTERF158-399 (SEQ ID NO: 1) was fused with different subsequences of RelA. RelA361-551 (SEQ ID NO: 27) corresponds to the sequence used in the construction of the bacterial-derived synthetic TF PIT2 [19], while RelA342-551 (SEQ ID NO: 29) contains all annotated transactivation domains according to domain annotation under Uniprot Q04206 (https://www.uniprot.org/uniprotkb/Q04206/entry). […] We also fused MTERF158-399 (SEQ ID NO: 1) to a set of transactivation domains previously found to be strong activators with a small genetic footprint (FIG. 4B).
To further decrease the DNA footprint of a HumTAP, the inventors investigated to what degree the DNA binding domain may be reduced. To this end, the inventors created 3 versions of MTERF1 subsequences fused to RelA430-551 (SEQ ID NO: 3). MTERF173-399 (SEQ ID NO: 7), MTERF1104-399 (SEQ ID NO: 9), and MTERF1135-399 (SEQ ID NO: 11) are subunits of MTERF1 without its mitochondrial transfer peptide (MTERF11-57; SEQ ID NO: 37) that either lack only the first […] N-terminal amino acids (MTERF58-72; SEQ ID NO: 39) or additionally, also lack the first (MTERF173-98; SEQ ID NO: 104) or both the first and second (MTERF1104-134; SEQ ID NO: 106) mterf motifs (FIG. 5A). The removal of N-terminal domains reduces the genetic footprint of a HumTAP (FIG. 5B). These constructs were co-transfected into HEK293 cells with the reporter construct containing 5×RE without a spacer in its promoter (SEQ ID NO: 48).
In addition to RelA430-551 (termed “v1”), the inventors tested three alternative subsequences: v2) RelA342-551 (SEQ ID NO: 29), which contains all transactivation domains as annotated on UniProt Q04206; v3) RelA361-551 (SEQ ID NO: 27), which is identical to the peptide used in the construction of PIT2 [2]; and v4) RelA521-551 (SEQ ID NO: 31), which constitutes only the transactivation domain 1 (TA1). The protein domains WW (SEQ ID NO: 21), KRAB of ZNF473 (SEQ ID NO: 23), Nuc-rec-co-Act (SEQ ID NO: 25), LMSTEN (SEQ ID NO: 19), and FoxoTAD (SEQ ID NO: 17) were recently identified as strong transactivators. To assess their functionality in the HumTAP context, the inventors created fusion proteins between each of them and MTERF158-399 (SEQ ID NO: 1) (FIG. 9A).
Upon co-transfection of HEK293 cells with plasmids encoding pEF1a-driven expression of the fusion HumTAPs, a Response Element-driven mCerulean reporter protein, and a mCherry transfection control, all peptides derived from RelA except TA1 mediated high levels of reporter gene expression. […]

[3] = tested on: Response Element-driven mCerulean reporter; assay: Dose dependency of mCerulean reporter expression on transfected MTF construct amount, HEK293; conditions: HEK293, 24-well plates, 100 ng reporter construct, Hill equation, Hill coefficient 1
Description: By transfecting different amounts of the codon optimized MTF construct into HEK293 cells the inventors established a dose dependency of mCerulean reporter (Gol) expression on the expression levels of MTF (FIG. 3). HEK293 cells in 24-well plates were transfected with 0.75, 3, 6, 12, 24, 48, 96, 192, and 384 ng of MTF construct, 100 ng of reporter construct, and 50 ng of constitutive mCherry transfection control construct. Two days after transfection, the cells were analyzed using flow cytometry. The dose-response curve was modeled as a Hill equation assuming a Hill coefficient of 1.

Row | Molecule | mCerulean reporter (Gol) expression ([1]; Hela cells co-transfected with MTF construct, microscopy and flow cytometry) | mCerulean reporter (Gol) expression ([2]; HEK293 cells co-transfected with MTF construct, microscopy and flow cytometry) | increase of reporter gene expression by codon optimization ([1]; Hela cells, 5xRE 6 bp spacer reporter (SEQ ID NO: 44), versus naturally used codons) | effect of codon optimization on reporter fluorescence levels ([2]; HEK cells) | EC10 of transfected MTF construct ([3]; two days after transfection) [ng] | EC50 of transfected MTF construct ([3]; two days after transfection) [ng] | theoretical EC90 of transfected MTF construct ([3]; slight drop at higher amounts) [ng]
1 | B1 | did not lead to mCerulean expression | showed the same behavior | – | – | – | – | –
2 | B2 | – | – | ca. 3 fold | no significant effect | 1.25 | 11.24 | 101
